According to US20040214774A1:

Tests used:
apoE3 (human) = apoE3 (human) (UniProt P02649); experiment: cell-based or functional assay
apoE4 (human) [1] = target: apoE4 (human) (UniProt P02649); experiment: cell-based or functional assay
apoE4 (human) [2] = target: apoE4 (human) (UniProt P02649); experiment: competitive inhibition ELISA: lipidated apoE4 100 nM preincubated with Aβ12-28P (0-400 nM), added to Aβ1-40 coated wells; one-site competition fit

Chain of apoE4 (human) (P02649 19-317 C130R limits assumed): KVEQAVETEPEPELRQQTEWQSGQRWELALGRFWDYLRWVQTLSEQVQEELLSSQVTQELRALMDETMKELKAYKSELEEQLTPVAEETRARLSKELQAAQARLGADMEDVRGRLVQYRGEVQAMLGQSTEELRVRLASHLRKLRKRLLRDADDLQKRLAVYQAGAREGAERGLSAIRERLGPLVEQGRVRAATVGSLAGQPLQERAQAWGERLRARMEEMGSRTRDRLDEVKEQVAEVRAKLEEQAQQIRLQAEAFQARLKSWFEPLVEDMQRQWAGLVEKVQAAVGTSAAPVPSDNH
Chain of apoE3 (human) (P02649 19-317 limits assumed): as the sequence (P02649 19-317 C130R limits assumed) above, with R112C counted along it

relative reduction in Thioflavin-T fluorescence of Aβ1-42 with apoE3 after 24 h of incubation (apoE3 (human)): 14.5%
relative reduction in Thioflavin-T fluorescence of Aβ1-42 with apoE3 by day six (apoE3 (human)): 48.3%
relative reduction in Thioflavin-T fluorescence of Aβ1-42 with apoE4 after 24 h of incubation (apoE4 (human) [1]): 25.3%
relative reduction in Thioflavin-T fluorescence of Aβ1-42 with apoE4 by day six (apoE4 (human) [1]): 52.3%
IC50 (apoE4 (human) [2]): 0.0367 µM
Substance: Aβ12-28P (peptide)
